One may read the koff as the first-order rate constant of dissociation. As usually defined, the kon is a measure of how fast the partners come together.

These results are taken from publication PMC2702692.

This assay concerns the target BSA-glycopolymer conjugate 10 (glycoprotein mimic 10) (bovine) (UniProt P02769). The assay is described as follows: SPR. (In general: SPR reads the build-up and loss of mass on a sensor chip optically.)
Chain of UniProt P02769 (P02769 25-607): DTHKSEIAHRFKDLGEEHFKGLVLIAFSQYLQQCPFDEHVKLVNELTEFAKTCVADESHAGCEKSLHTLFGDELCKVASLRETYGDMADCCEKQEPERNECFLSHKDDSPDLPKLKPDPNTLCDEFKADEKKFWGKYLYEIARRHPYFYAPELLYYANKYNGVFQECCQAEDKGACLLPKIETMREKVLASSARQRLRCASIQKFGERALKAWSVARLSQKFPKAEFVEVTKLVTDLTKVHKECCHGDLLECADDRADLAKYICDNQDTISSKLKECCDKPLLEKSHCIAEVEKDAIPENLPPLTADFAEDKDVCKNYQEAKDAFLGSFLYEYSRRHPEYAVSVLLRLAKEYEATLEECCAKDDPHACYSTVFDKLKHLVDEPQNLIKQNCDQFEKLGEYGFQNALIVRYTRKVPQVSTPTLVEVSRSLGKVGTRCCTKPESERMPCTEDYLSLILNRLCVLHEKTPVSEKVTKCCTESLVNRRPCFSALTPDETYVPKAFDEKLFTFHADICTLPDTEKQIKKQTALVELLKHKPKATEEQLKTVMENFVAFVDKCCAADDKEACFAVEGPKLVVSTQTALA

The substance “recombinant rat mannose-binding lectin (MBL) (from UniProt P19999 18-238) (natural protein)” had a koff of 0.00073 s⁻¹ and an on-rate (kon) of 120000 M⁻¹ s⁻¹.
